{"source": "patent US20160237147A1", "binders": {"B1": {"name": "anti-NGF antibody 14D11 (antibody, V domains shown)", "VH": "EVQLVQSGAEVKKPGESLKISCKGSGYNFTTYWIGWVRQMPGKGLEWMGIIYPGDSDTKYSPSFQGQVTISADKSISTAYLQWSSLKASDTAMYYCARNYYGSGTYYYYYGMNVWGQGTTVTVSS", "VL": "DIQMTQSPSSVSASVGDRVTITCRASQGISIWLAWYQHKPGKAPKLLIYAASSLQSGVPSRFSGSGSGTDFTLTISSLQPEDFATYYCQQANSFPWTFGQGTKVEIK"}, "B2": {"name": "anti-NGF antibody 14D10 (antibody, V domains shown)", "VH": "EVQLVESGGGLVQPGRSLRLSCTASGFTFEDYAMHWVRQAPGKGLEWVSGISWNRGIIGYADSVKGRFTVSRDNAKNSLYLQMNSLRAEDTALYYCAKEGYYGSGRPGYFYYVMDVWGQGTTVTVSS", "VL": "EIVLTQSPGTLSLSPGERATLSCRASQSVSSGFLAWFQQKPGQAPRLLIYGASSRATAIPDRFSGSGSGTDFTLTISRLEPEDFAVYYCQQYGSSPYTFGQGTKLEIK"}}, "key": {"[1]": {"target": "recombinant rat beta-NGF (R&D Systems) (rat) (UniProt P25427)", "sequence (P25427 122-241 limits assumed)": "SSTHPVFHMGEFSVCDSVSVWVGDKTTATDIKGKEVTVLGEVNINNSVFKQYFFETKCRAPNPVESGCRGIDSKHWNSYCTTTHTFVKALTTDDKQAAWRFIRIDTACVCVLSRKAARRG", "assay": "cell-based or functional assay"}, "[2]": {"target": "recombinant human NGF 1-120 (human) (UniProt P01138)", "sequence (P01138 other isoform, or with tags, fused parts or gaps)": "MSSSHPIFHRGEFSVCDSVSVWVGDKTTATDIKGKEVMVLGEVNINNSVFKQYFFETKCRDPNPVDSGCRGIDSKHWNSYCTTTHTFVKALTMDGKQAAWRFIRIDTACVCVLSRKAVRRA", "assay": "cell-based or functional assay"}}}
{"binder": "B1", "values": [{"measurement": "IC50 @ rNGF, NGF neutralization activity as in Example 3", "setting": "[1]", "value": "> 20000", "unit": "pM"}, {"measurement": "IC50 @ hNGF, NGF neutralization activity as in Example 3", "setting": "[2]", "value": 280, "unit": "pM"}]}
{"binder": "B2", "values": [{"measurement": "IC50 @ rNGF, NGF neutralization activity as in Example 3", "setting": "[1]", "value": "> 13000", "unit": "pM"}, {"measurement": "IC50 @ hNGF, NGF neutralization activity as in Example 3", "setting": "[2]", "value": 392, "unit": "pM"}]}
